According to PMC4070431:
pKi: −log10 of the molar value.

How the values were obtained:
[1] = target: human natriuretic peptide receptor-C (NPR-C) (human) (UniProt P17342); assay: radioligand binding
[2] = target: human natriuretic peptide receptor-A (NPR-A) (human) (UniProt P16066); assay: radioligand binding
[3] = target: human natriuretic peptide receptor-B (NPR-B) (human) (UniProt P20594)
[4] = target: human natriuretic peptide receptor-A (NPR-A) (human) (UniProt P16066)
[5] = target: non-selective somatostatin receptor (sst)

Sequence of human natriuretic peptide receptor-A (NPR-A) (human) (P16066 33-1061): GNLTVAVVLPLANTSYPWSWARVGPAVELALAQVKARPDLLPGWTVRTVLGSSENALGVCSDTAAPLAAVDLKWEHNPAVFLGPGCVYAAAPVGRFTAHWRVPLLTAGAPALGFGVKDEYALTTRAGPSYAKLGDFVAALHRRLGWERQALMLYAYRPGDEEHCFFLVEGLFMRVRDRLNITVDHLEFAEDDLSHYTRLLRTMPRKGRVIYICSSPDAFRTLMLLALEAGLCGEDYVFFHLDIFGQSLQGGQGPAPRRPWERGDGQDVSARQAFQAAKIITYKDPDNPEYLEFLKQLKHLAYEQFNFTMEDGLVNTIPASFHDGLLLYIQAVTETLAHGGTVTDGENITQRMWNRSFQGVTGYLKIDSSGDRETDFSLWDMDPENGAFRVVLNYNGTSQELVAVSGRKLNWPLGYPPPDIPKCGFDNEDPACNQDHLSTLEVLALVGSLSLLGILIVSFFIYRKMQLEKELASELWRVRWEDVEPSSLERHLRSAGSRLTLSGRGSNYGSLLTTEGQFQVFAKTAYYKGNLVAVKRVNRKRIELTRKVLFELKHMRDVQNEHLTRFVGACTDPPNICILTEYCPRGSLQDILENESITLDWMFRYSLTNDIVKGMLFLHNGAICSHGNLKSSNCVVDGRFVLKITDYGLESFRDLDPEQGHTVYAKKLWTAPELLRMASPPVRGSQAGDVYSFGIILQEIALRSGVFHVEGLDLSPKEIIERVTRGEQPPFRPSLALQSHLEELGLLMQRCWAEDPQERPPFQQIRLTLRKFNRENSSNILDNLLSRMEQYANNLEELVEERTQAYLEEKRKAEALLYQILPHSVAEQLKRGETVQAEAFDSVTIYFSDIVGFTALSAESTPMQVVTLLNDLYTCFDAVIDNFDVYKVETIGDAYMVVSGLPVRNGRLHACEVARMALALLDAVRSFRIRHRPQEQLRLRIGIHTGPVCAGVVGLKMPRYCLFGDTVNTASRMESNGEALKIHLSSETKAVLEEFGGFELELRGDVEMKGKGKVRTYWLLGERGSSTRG
Sequence of human natriuretic peptide receptor-C (NPR-C) (human) (P17342 27-541): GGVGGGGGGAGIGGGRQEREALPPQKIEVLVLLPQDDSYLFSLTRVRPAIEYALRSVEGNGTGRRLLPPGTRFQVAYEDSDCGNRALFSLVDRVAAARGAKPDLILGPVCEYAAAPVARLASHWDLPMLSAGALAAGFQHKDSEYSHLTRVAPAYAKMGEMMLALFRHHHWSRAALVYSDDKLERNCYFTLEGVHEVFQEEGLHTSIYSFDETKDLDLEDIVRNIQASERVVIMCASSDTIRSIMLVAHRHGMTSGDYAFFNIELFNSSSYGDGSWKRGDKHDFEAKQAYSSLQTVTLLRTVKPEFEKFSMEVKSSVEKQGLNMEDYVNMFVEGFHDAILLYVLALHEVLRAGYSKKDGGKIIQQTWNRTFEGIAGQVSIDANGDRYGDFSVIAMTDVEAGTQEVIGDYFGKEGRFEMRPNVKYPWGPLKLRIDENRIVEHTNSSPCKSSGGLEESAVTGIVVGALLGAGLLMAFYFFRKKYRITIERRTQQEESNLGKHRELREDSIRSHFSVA
Sequence of human natriuretic peptide receptor-B (NPR-B) (human) (P20594 23-1047): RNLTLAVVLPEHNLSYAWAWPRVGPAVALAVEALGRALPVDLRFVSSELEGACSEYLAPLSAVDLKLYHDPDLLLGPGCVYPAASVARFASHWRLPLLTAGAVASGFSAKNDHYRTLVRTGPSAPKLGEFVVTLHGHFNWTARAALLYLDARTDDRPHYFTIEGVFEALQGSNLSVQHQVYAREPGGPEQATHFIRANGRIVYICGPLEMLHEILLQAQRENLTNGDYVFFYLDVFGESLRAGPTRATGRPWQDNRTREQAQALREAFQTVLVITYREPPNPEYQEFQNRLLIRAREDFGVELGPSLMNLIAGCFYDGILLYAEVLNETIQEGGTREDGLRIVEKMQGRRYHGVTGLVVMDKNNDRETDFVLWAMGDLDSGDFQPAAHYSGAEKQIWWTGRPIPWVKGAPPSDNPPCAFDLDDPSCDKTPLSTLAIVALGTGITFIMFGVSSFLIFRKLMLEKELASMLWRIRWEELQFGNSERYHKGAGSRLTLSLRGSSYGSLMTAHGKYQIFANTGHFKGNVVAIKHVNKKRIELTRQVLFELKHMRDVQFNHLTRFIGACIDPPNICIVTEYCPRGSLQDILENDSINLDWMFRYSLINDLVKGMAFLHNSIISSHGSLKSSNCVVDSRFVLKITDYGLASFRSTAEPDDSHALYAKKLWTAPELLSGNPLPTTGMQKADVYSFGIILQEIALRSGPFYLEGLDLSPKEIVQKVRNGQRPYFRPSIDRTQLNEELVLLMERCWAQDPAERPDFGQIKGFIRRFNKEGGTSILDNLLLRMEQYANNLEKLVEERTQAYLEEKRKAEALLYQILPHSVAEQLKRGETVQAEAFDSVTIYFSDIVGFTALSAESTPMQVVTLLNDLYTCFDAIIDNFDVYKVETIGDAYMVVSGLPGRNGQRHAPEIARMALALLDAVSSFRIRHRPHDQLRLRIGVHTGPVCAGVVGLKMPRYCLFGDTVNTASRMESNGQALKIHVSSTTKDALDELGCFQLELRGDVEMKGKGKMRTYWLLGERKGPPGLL

| pKi [1] | pKi [2] | cGMP generation in HEK293 cells expressing the receptor (up to 10 µM), Emax [3] [% hCNP] | cGMP generation in HEK293 cells expressing the receptor, EC50 [4] [nM] | cGMP generation in HEK293 cells expressing the receptor, Emax [4] [% hANP] | pKi [5] | Substance |
| --- | --- | --- | --- | --- | --- | --- |
| 9.15 | 8.52 | 9 | 2 | 96 |  | human brain natriuretic peptide (hBNP) (ligand) |
|  |  |  |  |  | 5.38 | PL-3994 (Hept-cyclo(Cys-His-Phe-D-Ala-Gly-Arg-D-Nle-Asp-Arg-Ile-Ser-Cys)-Tyr-[Arg mimetic]-NH2) (peptide) |
